{
  "source": "patent US20240181006A1",
  "about": "“POLYPEPTIDES BINDING ADAMTS5, MMP13 AND AGGRECAN” (Merck Patent GmbH, priority 2017, published 2024)",
  "molecules": {"B1": {"name": "ISVD 02F03: immunoglobulin single variable domain which specifically binds ADAMTS5 (protein)", "VHH": "EVQLVESGGGVVQPGGSLRLSCAASGRTVSSYAMGWFRQAPGKEREFVAGISRSAERTYYVDSLKGRFTISRDNSKNTVYLQMNSLRPEDTALYYCAADLDPNRIFSREEYAYWGQGTLVTVSS", "modifications": "Description of Artificial Sequence: Synthetic anti-ADAMTS5 immunoglobulin single variable domain (ISVD)"}},
  "key": {"[1]": {"biological_target": "T1, guinea pig ADAMTS5 (Cavia porcellus, UniProt H0VFP0)", "T1 sequence (H0VFP0 21-906)": "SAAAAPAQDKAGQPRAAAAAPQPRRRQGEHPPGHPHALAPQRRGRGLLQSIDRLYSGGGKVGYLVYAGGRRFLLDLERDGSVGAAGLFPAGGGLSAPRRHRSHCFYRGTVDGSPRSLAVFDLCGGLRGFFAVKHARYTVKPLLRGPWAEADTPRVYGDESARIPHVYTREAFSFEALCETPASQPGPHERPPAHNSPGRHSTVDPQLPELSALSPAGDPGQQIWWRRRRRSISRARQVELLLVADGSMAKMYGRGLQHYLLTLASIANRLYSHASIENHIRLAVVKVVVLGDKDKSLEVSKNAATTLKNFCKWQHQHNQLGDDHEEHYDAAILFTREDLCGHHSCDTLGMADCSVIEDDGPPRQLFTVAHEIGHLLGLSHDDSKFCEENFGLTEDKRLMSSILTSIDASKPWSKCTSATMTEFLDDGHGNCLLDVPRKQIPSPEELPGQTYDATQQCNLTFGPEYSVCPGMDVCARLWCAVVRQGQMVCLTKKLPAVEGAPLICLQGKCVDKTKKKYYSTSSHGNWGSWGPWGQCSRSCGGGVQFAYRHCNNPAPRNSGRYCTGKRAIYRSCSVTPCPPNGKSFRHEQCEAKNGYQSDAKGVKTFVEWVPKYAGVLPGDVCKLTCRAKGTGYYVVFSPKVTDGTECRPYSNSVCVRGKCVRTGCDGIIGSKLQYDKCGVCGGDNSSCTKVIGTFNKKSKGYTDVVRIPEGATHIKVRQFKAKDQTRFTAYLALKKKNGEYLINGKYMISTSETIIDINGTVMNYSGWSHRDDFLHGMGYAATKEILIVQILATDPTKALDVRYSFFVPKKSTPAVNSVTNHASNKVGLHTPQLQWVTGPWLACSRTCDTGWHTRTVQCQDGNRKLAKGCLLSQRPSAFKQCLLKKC", "test": "SPR-based off-rate analysis, guinea pig ADAMTS5", "format": "binding", "details": "Experiment 1", "description": "(§1) Species cross-reactivity was initially evaluated via SPR-based off-rate analysis on a Biacore T100 instrument. Polypeptides were tested for binding to human, cynomolgus monkey (“cyno”), guinea pig, mouse, and bovine ADAMTS5. To this end, recombinant ADAMTS5 was immobilized onto a CM5 chip via amine coupling using EDC and NHS. Purified ISVD 02F03 was injected for 2 minutes at a concentration of 100 nM and allowed to dissociate for 15 min at a flow rate of 45 μl/min. Off-rate for each individual ADAMTS5 was determined by fitting a 1:1 interaction model (Langmuir model) onto the individual dissociation curves using the BIA Evaluation software. As a reference, off-rates on human ADAMTS5 were determined in each experiment."}, "[2]": {"biological_target": "T2, human ADAMTS5 (Homo sapiens, UniProt Q9UNA0)", "T2 sequence (Q9UNA0 262-930)": "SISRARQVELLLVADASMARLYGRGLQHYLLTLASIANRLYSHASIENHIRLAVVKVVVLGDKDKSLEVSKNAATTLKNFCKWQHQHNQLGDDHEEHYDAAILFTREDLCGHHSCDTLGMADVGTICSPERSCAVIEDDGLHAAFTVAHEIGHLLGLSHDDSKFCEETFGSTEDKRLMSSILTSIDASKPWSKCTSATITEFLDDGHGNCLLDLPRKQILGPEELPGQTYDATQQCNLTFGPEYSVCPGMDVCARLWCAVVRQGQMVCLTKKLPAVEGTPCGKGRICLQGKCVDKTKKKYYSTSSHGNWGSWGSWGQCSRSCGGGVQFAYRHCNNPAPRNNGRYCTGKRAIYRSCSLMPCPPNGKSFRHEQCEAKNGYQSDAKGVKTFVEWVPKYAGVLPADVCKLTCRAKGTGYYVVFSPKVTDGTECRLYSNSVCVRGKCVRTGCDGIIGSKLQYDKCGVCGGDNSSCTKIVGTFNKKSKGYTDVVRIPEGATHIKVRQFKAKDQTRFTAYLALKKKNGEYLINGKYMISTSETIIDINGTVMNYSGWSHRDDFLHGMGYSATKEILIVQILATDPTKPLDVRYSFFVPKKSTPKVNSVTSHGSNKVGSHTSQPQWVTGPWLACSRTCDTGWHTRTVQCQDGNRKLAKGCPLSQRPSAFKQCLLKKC", "test": "FRET-based human ADAMTS5 enzymatic assay", "format": "biochemical", "description": "(§2) In short, a periplasmic extract of ISVD 02F03 was tested for binding to recombinant human ADAMTS5 by binding ELISA. Next, it was confirmed that ISVD 02F03 was able to prevent ADAMTS5-mediated cleavage of Aggrecan in a FRET-based human ADAMTS5 enzymatic assay. Next to the FRET-based assay, an AlphaLISA (Perkin Elmer, Waltham, MA, US) based human ADAMTS5 assay with a biotinylated 43-mer Aggrecan oligopeptide as substrate was performed. Upon ADAMTS5 cleavage of this substrate, a biotinylated ARGSV neo-epitope product is released and can be detected by streptavidin-AlphaScreen donor beads and an α-neo-epitope (“ARGSV”) antibody captured on anti-mouse IgG-coated AlphaLISA acceptor beads, resulting in the generation of a luminescence AlphaScreen signal upon laser excitation. To determine the ability of ISVD 02F03 to prevent ADAMTS5-mediated cleavage of the substrate, the decrease in signal was analysed in function of ISVD 02F03 concentration and IC50 values were calculated."}, "[3]": {"biological_target": "T2, human ADAMTS5", "test": "SPR-based off-rate analysis, human ADAMTS5", "format": "binding", "description": "as §1"}, "[4]": {"biological_target": "T2, human ADAMTS5", "test": "AlphaLISA based human ADAMTS5 assay", "format": "biochemical", "description": "as §2"}},
  "data": [
    {"molecule": "B1", "values": [
      {"measurement": "SPR based off-rate, kd, Guinea pig ADAMTS-5", "setting": "[1]", "result": "3.4e-05", "unit": "s⁻¹"},
      {"measurement": "Human FRET % inhibition", "setting": "[2]", "result": 89, "unit": "%"},
      {"measurement": "SPR based off-rate, kd, Human ADAMTS-5", "setting": "[3]; Experiment 1", "result": "3.3e-05", "unit": "s⁻¹"},
      {"measurement": "SPR based off-rate, kd, Human ADAMTS-5", "setting": "[3]; Experiment 2", "result": "6.5e-05", "unit": "s⁻¹"},
      {"measurement": "SPR based off-rate, kd, Human ADAMTS-5", "setting": "[3]; Experiment 3", "result": "9.7e-05", "unit": "s⁻¹"},
      {"measurement": "Human AlphaLISA % inhibition", "setting": "[4]", "result": 100, "unit": "%"}
    ]}
  ]
}
